Tests used:
[1] = target: SARS-2 RBD (wild-type SARS-CoV-2 receptor binding domain, monomer) (SARS-CoV-2) (UniProt P0DTC2); assay: BLI, Fab on FAB2G sensor, RBD as analyte, apparent KD
[2] = target: WIV1 RBD (WIV1-CoV receptor binding domain, monomer) (WIV1-CoV); assay: BLI, Fab on FAB2G sensor, RBD as analyte, apparent KD
[3] = target: SARS-1 RBD (SARS-CoV receptor binding domain, monomer) (SARS-CoV (SARS-1)) (UniProt P59594); assay: as above

B38 Fab
Kd [1]: 970 nM | Kd (SARS-2^hg (row Trimer)): 3200 nM

CR3022 Fab
Kd [2]: 37 nM | Kd [3]: 27 nM
